For 2 substances, FoxM1B transcriptional activity (6x FoxM1B TATA-luciferase reporter, U2OS cells) (% stimulation) and FoxM1B transcriptional activity (6x FoxM1B TATA-luciferase reporter, U2OS cells) results are on record in patent US20050032692A1.

Experiment [1] addresses CBP protein (CREB Binding Protein). The experiment is described as follows: cell-based or functional assay.
The next experiment deals with Cdk1 protein (UniProt P06493). The experiment is described as follows: cell-based or functional assay.
Cdk1 protein, sequence (P06493 whole entry): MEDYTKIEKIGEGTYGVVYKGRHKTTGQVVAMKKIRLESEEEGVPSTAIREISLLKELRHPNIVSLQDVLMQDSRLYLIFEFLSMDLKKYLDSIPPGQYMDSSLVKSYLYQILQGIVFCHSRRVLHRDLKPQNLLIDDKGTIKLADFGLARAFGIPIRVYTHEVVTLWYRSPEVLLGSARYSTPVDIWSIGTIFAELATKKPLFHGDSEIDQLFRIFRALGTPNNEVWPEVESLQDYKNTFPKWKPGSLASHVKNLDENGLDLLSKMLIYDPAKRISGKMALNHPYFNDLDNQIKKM

The substance “T7-FoxM1B WT protein (CMV T7-FoxM1B WT) (from UniProt Q08050 1-763)” had a FoxM1B transcriptional activity (6x FoxM1B TATA-luciferase reporter, U2OS cells) (% stimulation) in experiment [1] of 50.

For “CMV T7-FoxM1B L641A mutant protein (from UniProt Q08050 1-763)”, the FoxM1B transcriptional activity (6x FoxM1B TATA-luciferase reporter, U2OS cells) with Cdk1 protein was found to be 80 % reduction.
